Test results published in publication doi:10.1101/2023.06.28.546964.

Molecular target: T1, PfAgo binding-pocket mutant (UniProt Q8U3D2)
T1 sequence: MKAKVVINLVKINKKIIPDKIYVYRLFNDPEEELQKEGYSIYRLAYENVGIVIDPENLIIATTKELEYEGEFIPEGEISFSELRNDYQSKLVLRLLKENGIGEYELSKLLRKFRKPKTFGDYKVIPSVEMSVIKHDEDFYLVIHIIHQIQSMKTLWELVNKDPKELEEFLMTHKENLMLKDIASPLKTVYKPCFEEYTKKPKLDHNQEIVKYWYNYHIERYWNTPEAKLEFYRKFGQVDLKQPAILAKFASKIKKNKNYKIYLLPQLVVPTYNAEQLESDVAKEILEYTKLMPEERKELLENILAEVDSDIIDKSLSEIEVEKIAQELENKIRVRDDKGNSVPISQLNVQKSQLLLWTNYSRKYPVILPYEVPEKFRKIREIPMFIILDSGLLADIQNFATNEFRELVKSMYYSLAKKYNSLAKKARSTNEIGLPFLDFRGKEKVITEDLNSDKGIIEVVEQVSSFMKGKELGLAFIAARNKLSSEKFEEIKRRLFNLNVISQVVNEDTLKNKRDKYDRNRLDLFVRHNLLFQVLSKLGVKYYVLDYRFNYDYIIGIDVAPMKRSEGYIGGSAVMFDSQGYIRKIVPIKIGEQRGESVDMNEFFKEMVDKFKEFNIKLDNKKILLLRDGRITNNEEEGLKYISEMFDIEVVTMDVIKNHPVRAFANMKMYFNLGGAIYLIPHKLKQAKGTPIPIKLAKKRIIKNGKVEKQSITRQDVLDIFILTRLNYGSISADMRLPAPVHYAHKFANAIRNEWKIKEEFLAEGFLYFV
Assay: fluorescence polarization

Sequence | binding signal (fold affinity gain) | binding signal (fold affinity gain (up to)) (5' phosphate)
ATATACTATACAACCTACTACCTCGTATAAATTTTTAAATAAATA [45nt DNA target] | 3 | 
TGACGTAGTAGGTTGT [guide_m4] |  | 2
